Test results published in publication PMC8815872, “A novel dual-labeled small peptide as a multimodal imaging agent for targeting wild-type EGFR in tumors” (PLoS ONE, 2022).
Like-named read-outs stand apart in the source and are kept apart here. Where a SMILES comes first, the peptide text is derived from it. The star is where a group is joined. 5TAMRA = CN(C)c1ccc2c(c1)Oc1cc(N(C)C)ccc1C21OC(=O)c2cc(C(=O)*)ccc21

How the values were obtained:
[1] = test system: mice bearing NCI-H460 and SW620 tumors
Protocol: (§2) Six-week-old female homozygous athymic BALB/c nu/nu mice (weighing 16–18 g) were purchased from Damul Science (Daejeon, Korea) and kept in cages. They were provided free access to food and tap water. After one week of adaptation to laboratory conditions, the mice were subcutaneously inoculated with 1 × 10^7 NCI-H460 (wtEGFR-positive) and SW620 (wtEGFR-negative, as an internal reference) cells (in 0.1 ml PBS) in both sides of the anterior chest region, respectively. The tumors were allowed to grow to about 300 to 400 mm^3 in volume. Tumor volume was calculated using the formula: V (mm^3) = 0.5 × a × b^2, where a and b represent the long and perpendicular short diameters of the tumor by caliper measurements. Approximately 21 days after inoculation, gamma camera imaging and biodistribution studies were performed.
(§3) Following the in vivo gamma camera imaging study, mice were sacrificed by cervical dislocation after anesthesia by intraperitoneal injection of 100 mg/kg bodyweight ketamine (n = 5).
(§4) Tissues of tumors and selected organs were weighed and collected into pre-weighed gamma counter tubes. The radioactivity of the tissues were counted using a gamma counter (1480 Wizard 3; PerkinElmer Life and Analytical Sciences) and counts per minute were decay-corrected. Results are expressed as a percentage injected dose per gram of wet tissue (%ID/g). Total activities injected per animal were calculated by evaluating the difference between pre-injection syringe counts and remaining syringe counts after injection.

[2] = test system: NCI-H460 and SW620 tumor tissue; assay: Confocal microscopy with immunohistochemical staining of tumor tissue; format: in vivo, mice; conditions: frozen tumor slices
Protocol: After the ex vivo imaging study, tumor tissues were snap-frozen in liquid nitrogen. Frozen tumor tissues were cut into slices (10 μm in thickness). After drying at room temperature, slices were fixed with ice-cold acetone for 10 min and then air dried at room temperature for 20 min. Tumor sections were maintained with 5% goat serum for 30 min at room temperature for blocking of nonspecific binding. Then, tumor sections were stained with anti-human wtEGFR antibody (cat. 4267S; Cell Signaling Technology, Danvers, MA, USA) for 1 h at room temperature. After being rinsed with PBS buffer, tumor slides were incubated with Alexa Fluor® 488-conjugated goat anti-rabbit secondary antibody (cat. 111-545-003, 1:100 dilution; Jackson Immuno Research Inc., West Grove, PA, USA). After being washed three times with PBS, tumor slides covered using Prolong® Gold Antifade Reagent with 4’,6-diamidino-2-phenylindole (DAPI; Invitrogen, Carlsbad, CA, USA) and closed with cover glasses. Confocal microscopic study was performed using a FV1200 confocal microscope (Olympus) with a 60× oil immersion lens.

[3] = test system: NCI-H460 cells (wtEGFR-positive); assay: Saturation binding study, NCI-H460 cells; design: species or system human; conditions: 37°C, 1 h
Protocol: NCI-H460 and SW620 cells were cultured in a humidified atmosphere with 5% carbon dioxide at 37°C. The cells were maintained in Dulbecco modified Eagle medium supplemented with 10% fetal bovine serum, streptomycin (100 μg/ml), and penicillin (100 U/ml). The cells were used for experiments and studies once about 80% confluence had been reached.
The binding affinities of Tc-99m SYPIPDT-ECG-TAMRA for NCI-H460 and SW620 cells were evaluated by saturation binding studies as described previously. Briefly, NCI-H460 and SW620 cells were plated into 96-well plates at a density of 1 × 10^4 cells/well and cultured overnight. Cells were washed twice (5 min each) using ice-cold binding buffer (25 mM HEPES and 1% bovine serum albumin). A concentration gradient (0–2,000 nM) of Tc-99m SYPIPDT-ECG-TAMRA was added to the wells and the cells were maintained at 37°C for 1 h. The total volume of each well was 200 μl. After cells were washed twice using ice-cold binding buffer, the cells of each well were obtained for gamma counting. Radioactivities of collected cells were measured using a 1480 Wizard 3 gamma counter (PerkinElmer Life and Analytical Sciences, Wallingford, CT, USA). The binding affinity value (Kd) was calculated by non-linear regression models of GraphPad Prism software version 5.03 (GraphPad Software, La Jolla, CA, USA). Each data point is the average value of four determinations.

[4] = Radiochemical stability in saline; format: physicochemical; conditions: room temperature, silica capillary column radio-chromatography, mean ± SD, n = 3
Protocol: To evaluate the radiochemical stability of the Tc-99m peptide complex, the labeled complex (0.1 ml) was incubated with 1 ml of saline at room temperature and freshly collected human serum at 37°C. Samples were collected at 30 min and at 1, 3, and 24 h and were analyzed using capillary column with saline (Rf of Tc-99m SYPIPDT-ECG-TAMRA and free pertechnetate = 0.9–1.0; Rf of colloid = 0.0–0.1) and acetone (Rf of free pertechnetate = 0.9–1.0; Rf of Tc-99m SYPIPDT-ECG-TAMRA and colloid = 0.0–0.1) as mobile phases. All experiments were conducted in triplicate (n = 3).

[5] = test system: NCI-H460 cells (wtEGFR-positive); assay: Cellular uptake using confocal microscopy, NCI-H460 cells; format: cell-based, human; conditions: 200 nM, 37°C, 1 h, serum free medium
Protocol: (§1) NCI-H460 and SW620 cells (1 × 10^5 cells) were cultured on the top of a cover-slip slide for 24 h at 37°C. The medium was replaced with fresh serum free medium (500 μL) containing Tc-99m SYPIPDT-ECG-TAMRA (200 nM). Cells were then incubated at 37°C for 1 h. These cells were rinsed three times with phosphate-buffered saline (PBS). The cell were stained with anti-human wtEGFR antibody (cat. 4267S; Cell Signaling Technology, Danvers, MA, USA) and Alexa Fluor® 488-conjugated goat anti-rabbit secondary antibody (cat. 111-545-003, 1:100 dilution; Jackson Immuno Research Inc., West Grove, PA, USA). The slides were covered with fluorescent mounting medium (Dako, Glostrup, Denmark) and closed with cover glasses. The confocal microscopic study was performed with a FV1200 confocal microscope (Olympus, Pittsburgh, PA, USA) with a 100× oil immersion lens.

[6] = test system: mice bearing NCI-H460 and SW620 tumors; assay: Ex vivo fluorescent imaging of excised organs and tumors; conditions: excised tumors after in vivo gamma camera imaging, n = 5
Protocol: Exposure time was 2.0 s per image. The images were analyzed using the dedicated software.

in vivo = conditions: female, athymic BALB/c nu/nu, mouse, total radioactivity, Mean %ID/g (SD)
Protocol: as §2, §3, §4

EGFR = conditions: concentration dependent; cited from earlier work
Excerpt: A major drawback of these imaging agents is their large size, which hinders efficient penetration into the targeted tissue and prevents rapid clearance from the non-targeted tissues. Therefore, efforts have been made to reduce the size of the targeting agents. Monoclonal antibody fragments such as Fab′, scFv, Affibody and Nanobody, have been investigated. However, the antibody fragments show reduced binding affinity for their target compared to the parental antibody, and their stability also decreases over time. In the present study, we tried to overcome these drawbacks by utiliz ...

[7] = test system: SW620 cells (wtEGFR-negative); assay: Cellular uptake using confocal microscopy, SW620 cells; format: cell-based, human; conditions: 200 nM, 37°C, 1 h, serum free medium
Protocol: as §1

[8] = NCI-H460 tumor (wtEGFR-positive)

Compound: CC[C@H](C)[C@H](NC(=O)[C@@H]1CCCN1C(=O)[C@H](Cc1ccc(O)cc1)NC(=O)[C@@H](N)CO)C(=O)N1CCC[C@H]1C(=O)N[C@@H](CC(=O)O)C(=O)N[C@H](C(=O)NCC(=O)N[C@@H](Cc1c[nH]cn1)C(=O)N[C@@H](CCC(=O)O)C(=O)NCC(=O)N[C@@H](CCC(=O)O)C(=O)N[C@@H](CS)C(=O)NCC(=O)N[C@@H](CCCCNC(=O)c1ccc2c(c1)C(=O)OC21c2ccc(N(C)C)cc2Oc2cc(N(C)C)ccc21)C(=O)O)[C@@H](C)O [Tc-99m SYPIPDT-ECG-TAMRA, Tc-99m SYPIPDT-GHEG-ECG-K-tetramethylrhodamine, metal not drawn] (H-SYPIPDTGHEGECGK(5TAMRA)-OH)
- tumor to normal muscle ratio of the %ID/g values ([1]; 1 h after injection): 2.45 ± 0.22
- tumor to normal muscle ratio of the %ID/g values ([1]; 3 h after injection): 7.13 ± 2.00
- fluorescence within NCI-H460 tumor tissue (confocal microscopy) ([2]; NCI-H460 tumor): significant
- fluorescent activity of TAMRA in SW620 tumor tissue (confocal microscopy) ([2]; SW620 tumor): barely detected
- Kd ([3]; 0-2,000 nM, gamma counting, non-linear regression, four determinations per point, read-out: binding affinity value (Kd) for NCI-H460 cells): 76.5 ± 15.8 nM
- Bmax ([3]; NCI-H460 cells): 3652 ± 189 fmol/mg protein
- intact percentage incubated in saline ([4]; 30 min, 0.1 ml complex in 1 ml): 95.1 ± 0.6%
- intact percentage incubated in saline ([4]; 1 h): 94.7 ± 1.3%
- intact percentage incubated in saline ([4]; 3 h): 93.9 ± 1.1%
- intact percentage incubated in saline ([4]; 24 h): 92.1 ± 1.4%
- fluorescence activity of TAMRA on cells (confocal microscopy) [5]: strong fluorescence activity
- ex vivo fluorescent activity, NCI-H460 tumor versus SW620 tumor [6]: significantly higher fluorescent activity
- tissue uptake at 1 h (in vivo; Blood): 3.22 %ID/g
- tissue uptake at 3 h (in vivo; Blood): 0.87 %ID/g
- tissue uptake at 1 h (in vivo; Colon): 1.11 %ID/g
- tissue uptake at 3 h (in vivo; Colon): 0.42 %ID/g
- tissue uptake at 1 h (in vivo; Heart): 1.43 %ID/g
- tissue uptake at 3 h (in vivo; Heart): 0.45 %ID/g
- tissue uptake at 1 h (in vivo; Kidneys): 21.1 %ID/g
- tissue uptake at 3 h (in vivo; Kidneys): 12.4 %ID/g
- tissue uptake at 1 h (in vivo; Liver): 1.9 %ID/g
- tissue uptake at 3 h (in vivo; Liver): 1.07 %ID/g
- tissue uptake at 1 h (in vivo; Lungs): 2.23 %ID/g
- tissue uptake at 3 h (in vivo; Lungs): 0.61 %ID/g
- tissue uptake at 1 h (in vivo; Muscles): 0.79 %ID/g
- tissue uptake at 3 h (in vivo; Muscles): 0.25 %ID/g
- tissue uptake at 1 h (in vivo; [8]): 1.91 %ID/g
- tissue uptake at 3 h (in vivo; [8]): 1.7 %ID/g
- tissue uptake at 1 h (in vivo; SW620 tumor (wtEGFR-negative)): 1.27 %ID/g
- tissue uptake at 3 h (in vivo; SW620 tumor (wtEGFR-negative)): 0.54 %ID/g
- tissue uptake at 1 h (in vivo; Stomach): 1.68 %ID/g
- tissue uptake at 3 h (in vivo; Stomach): 0.37 %ID/g

Compound: SYPIPDT [small 7-mer peptide ligand for wild-type EGFR identified by phage display (Hamzeh-Mivehroud et al.)]
- diminished the increased EGF-dependent phosphorylation of EGFR (EGFR): 44%

Compound: SYPIPDT-GHEG-ECG-K-tetramethylrhodamine [SYPIPDT-ECG-TAMRA, unlabeled precursor peptide with GHEG linker, ECG chelator and TAMRA dye]
- fluorescence activity of TAMRA on cells (confocal microscopy) [7]: barely detectable
- fluorescence activity of TAMRA on cells (confocal microscopy) [5]: strong fluorescence activity
